US20220125940A1 (Novo Nordisk, published 2022)
Starred links: 1 amine or outer side, 2 acyl side, 3 side chain; linkers in the order of their positions; H or OH if unused. Non-standard residues stand in square brackets, D forms with d. Groups on a side chain read outwards from the residue. No end group written: not given here. *: point of attachment. C18 diacid = O=C(O)CCCCCCCCCCCCCCCCC(=O)*; γGlu = O=C(O)[C@H](CCC(=O)[*:2])N[*:1]; εLys = N[C@@H](CCCCN[*:1])C(=O)[*:2]; AEEA = NCCOCCOCC(=O)O; Aib = CC(C)(N)C(=O)O

T1: human GIP receptor (human, UniProt P48546 22-466)
T1 sequence (looked up): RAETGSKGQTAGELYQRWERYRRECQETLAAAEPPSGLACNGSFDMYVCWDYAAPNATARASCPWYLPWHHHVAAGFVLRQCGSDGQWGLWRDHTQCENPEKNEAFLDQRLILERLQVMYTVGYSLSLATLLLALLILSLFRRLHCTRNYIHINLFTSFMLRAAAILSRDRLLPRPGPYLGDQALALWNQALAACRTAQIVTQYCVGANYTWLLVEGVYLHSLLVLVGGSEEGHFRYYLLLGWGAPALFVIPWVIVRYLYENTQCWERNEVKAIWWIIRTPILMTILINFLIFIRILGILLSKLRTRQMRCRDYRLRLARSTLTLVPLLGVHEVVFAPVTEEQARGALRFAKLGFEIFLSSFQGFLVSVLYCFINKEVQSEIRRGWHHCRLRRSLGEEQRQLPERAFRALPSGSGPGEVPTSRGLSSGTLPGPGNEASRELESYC


Experiments:
human GIP receptor = target: T1, human GIP receptor; test: cell-based or functional assay
human GLP-1 receptor = human GLP-1 receptor (human, UniProt P43220 24-463); test: cell-based or functional assay
Sequence of human GLP-1 receptor (P43220 24-463): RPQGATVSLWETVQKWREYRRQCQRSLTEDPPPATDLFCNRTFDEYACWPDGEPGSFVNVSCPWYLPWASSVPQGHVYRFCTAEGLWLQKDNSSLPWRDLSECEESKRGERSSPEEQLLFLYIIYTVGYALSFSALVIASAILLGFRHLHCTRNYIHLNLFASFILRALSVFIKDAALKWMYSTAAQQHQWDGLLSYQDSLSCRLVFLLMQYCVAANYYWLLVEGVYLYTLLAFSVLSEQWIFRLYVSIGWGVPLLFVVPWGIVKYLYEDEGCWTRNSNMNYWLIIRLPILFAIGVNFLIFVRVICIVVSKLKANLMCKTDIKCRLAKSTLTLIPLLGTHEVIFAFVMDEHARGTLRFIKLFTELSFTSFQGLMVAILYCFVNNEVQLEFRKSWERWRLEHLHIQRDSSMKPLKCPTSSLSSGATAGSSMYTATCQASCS

| Molecule | hGIPR, CRE Luc 0% HSA EC50 (pM) (human GIP receptor) | hGIPR, CRE Luc 1% HSA EC50 (pM) (human GIP receptor) | hGLP-1R, CRE Luc 0% HSA EC50 (pM) (human GLP-1 receptor) | hGLP-1R, CRE Luc 1% HSA EC50 (pM) (human GLP-1 receptor) |
| --- | --- | --- | --- | --- |
| human GIP (from UniProt P09681 52-93) (ligand) | 11.3 pM | 6.4 pM | – | – |
| Y[Aib]EGTFTSDYSILLEK([εLys-εLys-γGlu-C18 diacid])QAAREFINWLLAGGPSSGA-OH (N-terminus assumed; SMILES CC[C@H](C)[C@H](NC(=O)[C@H](Cc1ccccc1)NC(=O)[C@H](CCC(=O)O)NC(=O)[C@H](CCCNC(=N)N)NC(=O)[C@H](C)NC(=O)[C@H](C)NC(=O)[C@H](CCC(N)=O)NC(=O)[C@H](CCCCNC(=O)[C@@H](N)CCCCNC(=O)[C@@H](N)CCCCNC(=O)CC[C@H](NC(=O)CCCCCCCCCCCCCCCCC(=O)O)C(=O)O)NC(=O)[C@H](CCC(=O)O)NC(=O)[C@H](CC(C)C)NC(=O)[C@H](CC(C)C)NC(=O)[C@@H](NC(=O)[C@H](CO)NC(=O)[C@H](Cc1ccc(O)cc1)NC(=O)[C@H](CC(=O)O)NC(=O)[C@H](CO)NC(=O)[C@@H](NC(=O)[C@H](Cc1ccccc1)NC(=O)[C@@H](NC(=O)CNC(=O)[C@H](CCC(=O)O)NC(=O)C(C)(C)NC(=O)[C@@H](N)Cc1ccc(O)cc1)[C@@H](C)O)[C@@H](C)O)[C@@H](C)CC)C(=O)N[C@@H](CC(N)=O)C(=O)N[C@@H](Cc1c[nH]c2ccccc12)C(=O)N[C@@H](CC(C)C)C(=O)N[C@@H](CC(C)C)C(=O)N[C@@H](C)C(=O)NCC(=O)NCC(=O)N1CCC[C@H]1C(=O)N[C@@H](CO)C(=O)N[C@@H](CO)C(=O)NCC(=O)N[C@@H](C)C(=O)O) [Compound No. 21] | 5.4 pM | 131 pM | 5.7 pM | 118 pM |
| Y[Aib]EGTFTSDYSILLEK([εLys-εLys-γGlu-C18 diacid])QAAREFINWLLAGGPSS-OH (N-terminus assumed; SMILES CC[C@H](C)[C@H](NC(=O)[C@H](Cc1ccccc1)NC(=O)[C@H](CCC(=O)O)NC(=O)[C@H](CCCNC(=N)N)NC(=O)[C@H](C)NC(=O)[C@H](C)NC(=O)[C@H](CCC(N)=O)NC(=O)[C@H](CCCCNC(=O)[C@@H](N)CCCCNC(=O)[C@@H](N)CCCCNC(=O)CC[C@H](NC(=O)CCCCCCCCCCCCCCCCC(=O)O)C(=O)O)NC(=O)[C@H](CCC(=O)O)NC(=O)[C@H](CC(C)C)NC(=O)[C@H](CC(C)C)NC(=O)[C@@H](NC(=O)[C@H](CO)NC(=O)[C@H](Cc1ccc(O)cc1)NC(=O)[C@H](CC(=O)O)NC(=O)[C@H](CO)NC(=O)[C@@H](NC(=O)[C@H](Cc1ccccc1)NC(=O)[C@@H](NC(=O)CNC(=O)[C@H](CCC(=O)O)NC(=O)C(C)(C)NC(=O)[C@@H](N)Cc1ccc(O)cc1)[C@@H](C)O)[C@@H](C)O)[C@@H](C)CC)C(=O)N[C@@H](CC(N)=O)C(=O)N[C@@H](Cc1c[nH]c2ccccc12)C(=O)N[C@@H](CC(C)C)C(=O)N[C@@H](CC(C)C)C(=O)N[C@@H](C)C(=O)NCC(=O)NCC(=O)N1CCC[C@H]1C(=O)N[C@@H](CO)C(=O)N[C@@H](CO)C(=O)O) [Compound No. 20] | 7.1 pM | 247 pM | 4.2 pM | 256 pM |
| Y[Aib]EGTFTSDYSILLEK([εLys-εLys-γGlu-C18 diacid])QAAREFINWLLAGGP-OH (N-terminus assumed; SMILES CC[C@H](C)[C@H](NC(=O)[C@H](Cc1ccccc1)NC(=O)[C@H](CCC(=O)O)NC(=O)[C@H](CCCNC(=N)N)NC(=O)[C@H](C)NC(=O)[C@H](C)NC(=O)[C@H](CCC(N)=O)NC(=O)[C@H](CCCCNC(=O)[C@@H](N)CCCCNC(=O)[C@@H](N)CCCCNC(=O)CC[C@H](NC(=O)CCCCCCCCCCCCCCCCC(=O)O)C(=O)O)NC(=O)[C@H](CCC(=O)O)NC(=O)[C@H](CC(C)C)NC(=O)[C@H](CC(C)C)NC(=O)[C@@H](NC(=O)[C@H](CO)NC(=O)[C@H](Cc1ccc(O)cc1)NC(=O)[C@H](CC(=O)O)NC(=O)[C@H](CO)NC(=O)[C@@H](NC(=O)[C@H](Cc1ccccc1)NC(=O)[C@@H](NC(=O)CNC(=O)[C@H](CCC(=O)O)NC(=O)C(C)(C)NC(=O)[C@@H](N)Cc1ccc(O)cc1)[C@@H](C)O)[C@@H](C)O)[C@@H](C)CC)C(=O)N[C@@H](CC(N)=O)C(=O)N[C@@H](Cc1c[nH]c2ccccc12)C(=O)N[C@@H](CC(C)C)C(=O)N[C@@H](CC(C)C)C(=O)N[C@@H](C)C(=O)NCC(=O)NCC(=O)N1CCC[C@H]1C(=O)O) [Compound No. 19] | 6.5 pM | 275 pM | 8.6 pM | 365 pM |
| Y[Aib]EGTFTSDYSILLEK([εLys-εLys-γGlu-C18 diacid])QAAREFINWLLAG-OH (N-terminus assumed; SMILES CC[C@H](C)[C@H](NC(=O)[C@H](Cc1ccccc1)NC(=O)[C@H](CCC(=O)O)NC(=O)[C@H](CCCNC(=N)N)NC(=O)[C@H](C)NC(=O)[C@H](C)NC(=O)[C@H](CCC(N)=O)NC(=O)[C@H](CCCCNC(=O)[C@@H](N)CCCCNC(=O)[C@@H](N)CCCCNC(=O)CC[C@H](NC(=O)CCCCCCCCCCCCCCCCC(=O)O)C(=O)O)NC(=O)[C@H](CCC(=O)O)NC(=O)[C@H](CC(C)C)NC(=O)[C@H](CC(C)C)NC(=O)[C@@H](NC(=O)[C@H](CO)NC(=O)[C@H](Cc1ccc(O)cc1)NC(=O)[C@H](CC(=O)O)NC(=O)[C@H](CO)NC(=O)[C@@H](NC(=O)[C@H](Cc1ccccc1)NC(=O)[C@@H](NC(=O)CNC(=O)[C@H](CCC(=O)O)NC(=O)C(C)(C)NC(=O)[C@@H](N)Cc1ccc(O)cc1)[C@@H](C)O)[C@@H](C)O)[C@@H](C)CC)C(=O)N[C@@H](CC(N)=O)C(=O)N[C@@H](Cc1c[nH]c2ccccc12)C(=O)N[C@@H](CC(C)C)C(=O)N[C@@H](CC(C)C)C(=O)N[C@@H](C)C(=O)NCC(=O)O) [Compound No. 18] | 20.9 pM | 285 pM | 19.7 pM | 226 pM |
| Y[Aib]EGTFTSDYSIYLEK([AEEA-AEEA-γGlu-C18 diacid])QAAREFIEWLLAGGPSSGAPPPS-OH (N-terminus assumed; SMILES CC[C@H](C)[C@H](NC(=O)[C@H](Cc1ccccc1)NC(=O)[C@H](CCC(=O)O)NC(=O)[C@H](CCCNC(=N)N)NC(=O)[C@H](C)NC(=O)[C@H](C)NC(=O)[C@H](CCC(N)=O)NC(=O)[C@H](CCCCNC(=O)COCCOCCNC(=O)COCCOCCNC(=O)CC[C@H](NC(=O)CCCCCCCCCCCCCCCCC(=O)O)C(=O)O)NC(=O)[C@H](CCC(=O)O)NC(=O)[C@H](CC(C)C)NC(=O)[C@H](Cc1ccc(O)cc1)NC(=O)[C@@H](NC(=O)[C@H](CO)NC(=O)[C@H](Cc1ccc(O)cc1)NC(=O)[C@H](CC(=O)O)NC(=O)[C@H](CO)NC(=O)[C@@H](NC(=O)[C@H](Cc1ccccc1)NC(=O)[C@@H](NC(=O)CNC(=O)[C@H](CCC(=O)O)NC(=O)C(C)(C)NC(=O)[C@@H](N)Cc1ccc(O)cc1)[C@@H](C)O)[C@@H](C)O)[C@@H](C)CC)C(=O)N[C@@H](CCC(=O)O)C(=O)N[C@@H](Cc1c[nH]c2ccccc12)C(=O)N[C@@H](CC(C)C)C(=O)N[C@@H](CC(C)C)C(=O)N[C@@H](C)C(=O)NCC(=O)NCC(=O)N1CCC[C@H]1C(=O)N[C@@H](CO)C(=O)N[C@@H](CO)C(=O)NCC(=O)N[C@@H](C)C(=O)N1CCC[C@H]1C(=O)N1CCC[C@H]1C(=O)N1CCC[C@H]1C(=O)N[C@@H](CO)C(=O)O) [Compound No. 10] | 11.3 pM | – | – | – |
